B1: FAM107A (parent)
chain: LQRVLEHRRRNQLIKKKKEELEAK
B2: SERPINB5 (parent)
chain: FPESETKECPFRVNKVCGAACSSK

Variants of: B1
Experiment: protein stability index of a GFP-peptide fusion (GPS, HEK-293T) (PSI 1-6); higher = more stable
Settings: c terminus: a fixed tail appended
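Note: lentivirally expressed fusions sorted by FACS into six bins by GFP to DsRed ratio, PSI derived from sequencing read proportions per bin multiplied by bin number.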

Variant	protein stability index
E22W	2.75
E22H	2.33
E22L	3.08
E22Q	3.59
E22F	2.59
L21R	4.14
L21Y	2.46
L21W	3.18
L21G	3.63
L21I	2.78
L21C	3.3
L21D	4.01
L21Q	3.48
L21M	3.32
L21A	3.88
L21S	3.92
L21P	3.46
L21N	4.16
E6W	3.02
E6D	3.61
E6L	2.79
E6M	3.32
E6R	3.81
E6K	4.04

Variant	protein stability index
E6H	3.81
E6F	3.63
E6Y	3
E6G	3.98
R3D	4.5
R3W	2.27
R3V	3.6
R3T	3.8
R3Y	3.39
R3N	3.79
R3L	2.39
R3K	3.69
R3S	4.04
R3E	5.32
R3I	2.09
R3Q	3.92
R3A	3.21
E20S	3.99
E20H	2.83
E20F	2.52
E20W	2.29
E20P	3.74
E20A	3.12
E20L	3.03

Variant	protein stability index
E20Y	2.94
E20Q	2.12
E20D	3.71
E20I	3.35
E20N	3.35
Q12P	4.12
Q12N	3.1
Q12Y	2.8
Q12H	3.5
Q12T	3.66
Q12I	3.74
Q12A	4.05
Q12K	4
Q12G	2.85
Q12L	2.2
Q12R	4.07
Q12W	1.5
Q12V	3.45
Q12D	3.74
L5M	4.19
L5C	3.69
L5W	3.71
L5S	4.46
L5A	4.08

Variant	protein stability index
L5I	3.2
L5G	4.73
L5N	4.27
L5P	4.69
L5T	4.38
L5R	4.04
L5E	4.38
E19Y	3.23
E19P	3.41
E19M	3.19
E19S	3.13
E19F	2.22
E19H	2.87
E19I	3.12
E19V	2.7
E19R	2.56
E19C	2.46
E19T	3.19
E19D	4.2
E19K	2.97
E19N	2.98
R10C	3.14
R10Y	4.04
R10T	4.57

Variant	protein stability index
R10I	3.3
R10D	4.77
R10V	3.95
R10G	4.15
R10L	3.66
R10S	3.95
R10E	3.75
R10A	4.01
R10N	3.55
R10F	3.21
R10H	3.2
A23G	3.7
A23S	3.63
A23Y	3.48
A23Q	3.87
A23N	3.56
A23T	3.11
A23K	2.86
A23R	3.48
A23C	2.98
A23L	3.99

Variants of: B2
Experiment: as above
Settings: c terminus: a fixed tail appended

Variant	protein stability index
K15S	2.32
A20G	3.22
E8L	2.33
E8P	2.29
N14G	2.02
N14C	2.69
N14M	2.98
C17P	2.29
V16D	2.89
V16G	2.9
F11W	2.16
K24H	2.81
S4N	3.17
S4R	2.76
S4V	3.08
V13T	3.54
V13H	4.26
V13R	3.59
C21G	2.69
C21L	2.2
C21Y	2.51
C21T	2.62
T6N	2.2
T6H	2.56
T6W	2.65

Variant	protein stability index
P10L	2.14
S23V	2.42
S23A	2.41
C9A	4.49
C9S	2.15
K7S	2.69
K7V	2.53
K7A	2.43
K7G	2.52
E5T	2.11
E5R	1.9
E5Y	1.87
P2G	3.59
P2R	4.19
A19N	2.61
A19V	2.41
G18N	2.59
E3K	2.09
E3C	2.4
S22T	2.39
S22M	2.4
S22D	2.66
R12C	4.62
R12A	3.76
F1H	4.54

— the supplement of paper PMC10567573
